Biological target: T1, mANGPTL4-His [R26-S410 of mANGPTL4 (SEQ ID NO: 478) fused with an AS linker to a C-terminal 6-histidine tag] (mouse, UniProt Q9Z1P8 26-410)
T1 construct: also called mANGPTL4(26-410)-His
T1 sequence: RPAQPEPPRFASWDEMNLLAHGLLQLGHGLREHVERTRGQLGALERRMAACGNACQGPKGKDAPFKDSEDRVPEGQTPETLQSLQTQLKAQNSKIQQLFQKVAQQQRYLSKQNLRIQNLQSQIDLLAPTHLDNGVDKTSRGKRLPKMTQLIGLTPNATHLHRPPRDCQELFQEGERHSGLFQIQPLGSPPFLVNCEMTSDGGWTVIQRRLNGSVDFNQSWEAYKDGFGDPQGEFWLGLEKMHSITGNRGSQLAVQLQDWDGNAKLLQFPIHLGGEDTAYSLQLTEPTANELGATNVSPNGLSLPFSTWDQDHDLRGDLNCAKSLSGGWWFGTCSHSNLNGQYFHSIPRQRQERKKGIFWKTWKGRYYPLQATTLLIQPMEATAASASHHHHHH
Experiment: SPR (Biacore), antigen amine coupled
Description: Possible cross-reactivity of the anti-hANGPTL4 antibodies to related proteins, i.e., hANGPTL3, human angiopoietin-like protein 5 (hANGPTL5) and mouse ANGPTL4 (mANGPTL4), was tested for the selected antibodies, i.e., H1H268P and H1H284P, using the BIACORE™ system. Briefly, anti-hANGPTL4 antibodies as well as negative controls, i.e., two monoclonal antibodies (Control a and Control b) that are non-binders to any ANGPTL proteins, were injected at 3.125 μg/mL-50 μg/mL over amine coupled chip surfaces of hANGPTL3-His (R&D Systems, cat #3829-AN) at 5228 RU, hANGPTL4-His (R&D Systems, cat #4487-AN) at 6247 RU, hANGPTL5-His (Abnova Corp., cat #H00253935-P01) at 5265 RU, and mANGPTL4-His [R26-S410 of mANGPTL4 (SEQ ID NO: 478) fused with an AS linker to a C-terminal 6-histidine tag] at 5233 RU, respectively. A polyclonal antibody specific for hANGPTL3 (R&D System, cat #BAF3485) was also tested.

B1: H1H284P (antibody, V domains shown)
VH: QVQLVESGGGVVQPGRSLRLSCAASGFTFSSYGMHWVRQAPGKGLEWMAVISFDGGNKNNADSVKGRFTISRDNSKNTLYLQMNSLRAEDTAVYYCAKEGDRSGHPYFYYYGLDVWGQGTTVTVS
VL: DIQLTQSPSFLSASVGDRVTITCWASQGISSYLAWYQQKPGKAPKLLIYAASTLQSGVPSRFSGSGSETEFTLTISSLQPEDFATYYCQQLHSYPLTFGGGTKVEIK
notes: also called entire H1H284 mAb; Full mAb
binding result: no binding (tested: 3.125 µg/mL-50 µg/mL)
